# Results reported in publication PMC2917185.
# B1: cpSRP43 (mature), O22265 57-373 (natural protein)
# chain: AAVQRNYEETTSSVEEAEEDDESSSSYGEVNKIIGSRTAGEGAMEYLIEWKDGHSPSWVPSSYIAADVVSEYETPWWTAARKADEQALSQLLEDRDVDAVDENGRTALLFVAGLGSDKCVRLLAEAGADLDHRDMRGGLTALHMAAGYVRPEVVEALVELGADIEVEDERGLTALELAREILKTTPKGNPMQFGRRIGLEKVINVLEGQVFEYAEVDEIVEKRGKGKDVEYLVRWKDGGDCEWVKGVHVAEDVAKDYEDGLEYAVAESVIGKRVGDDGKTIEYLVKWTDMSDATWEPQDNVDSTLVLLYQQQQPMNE
# Assays:
# [1] = biological target: T1, LHCP (light-harvesting chlorophyll a/b binding protein), fluorescein-labeled, P07371; assay: fluorescence polarisation; details: remark: other sources report otherwise
# [2] = biological target: T1, LHCP (light-harvesting chlorophyll a/b …); assay: fluorescence polarisation; details: remark: other sources report otherwise; remark: listed apart in the source
binder,measurement,setting,value
B1,Kd,[1],296 nM
same,Kd,[2],138 nM
